Data: the DeepSol protein solubility set

Assay: soluble on expression in E. coli; label from the status in PepcDB or PDB records

| Sequence | soluble on expression in E. coli |
| --- | --- |
| MKAYKLLTTASIGALMLGMSTAAYSDNWRYAHEEYEGDVQDVFAQAFKGYVEDNSDHTVQVYRFGELGESDDIMEQTQNGILQFVNQSPGFTGSLIPSAQIFFIPYLMPTDMDTVLEFFDESKAINEMFPKLYAEHGLELLKMYPEGEMVVTADEPITSPEDFDNKKIRTMTNPLLAETYKAFGATPTPLPWGEVYGGLQTGIIDGQENPIFWIESGGLYEVSPNLTFTSHGWFTTAMMANQDFYEGLSEEDQQLVQDAADAAYDHTIEHIKGLSEESLEKIKAASDEVTVTRLNDEQIQAFKERAPQVEEKFIEMTGEQGQELLDQFKADLKAVQSESEG | soluble |
| MKDTLMSIQIIPKTPNNDNVIPYVDEAIKIIDESGMHFRVGPLETTVQGNMNECLILIQSLNERMVELECPSIISQVKFYHVPDGITIETLTEKYDELEHHHHHH | soluble |
| MKECKKCKSNEYTNKQLVMMINECGHPLCKNCVDNIFALNSGNCHVCNRVLRKNNFREQIYEDPLIDKETFLRRKLRKIYNLKQDDFENLREFGDYQERFETVVYNLVFETNVNETNAEIQAFEEKHKEQIDRNKRRLDDDQKWIEDQLREERAMKARMTDHMEMDAKEQEAASAVTDTRKIMDELRDSNVAAEVILDRERKKQIEKELEEKEEQEKRKRRNKEMLQTRKRAAENMSFNTVIRVAGRAYVHQPLELVINGPPMPNVSEIEALGYLAHIRQPTAEYIAGGYTPMLGCSRALFEARIDLFSF | not soluble |
| MKEDKKVLHVANMTNGLIVYPDYDYIVYFPSSYTAAGTPLYFPEFAVPIDLIKALLEEKKVIMYDATVHENKELTDAFLKGVPTFLMALNRAIHGTKGLFEKLEKGYKVCPWQTPDIVQHAVYRLPKHYYKFLKKCVKLFAPEKRGKLWISIPENVELVVEKIDRRLNDNYEEIAKMIKEKKSIHTYRV | not soluble |
| MKEDLLDIVCCPLDKHDLTLDADATEDGEVMAGTLTCTDCGETYPIEDGIPNLLPPDMRDDAESASALEHHHHHH | not soluble |
| MKEERRRLLAKVAYLHYVQGKSQTLISKEMNIYRTTVCRMLAKAKEEGIVRIEIADYDADLFALEEYVRQQYGLEKLDLVPNQVEDTPMDTLTNVAKTAAEVFRHVVKDGDKIGLSWGATLSCLMDELNPKAMKDVFIYPLAGGPSHINAKYHVNTLVYRLARIFHGNSAFMNAMVIQEDKHLAKGILQSKYFNDILTSWDQLDLALVGIGGEPNSLEQSQWRDLLTSSDHDQLKYEKAVGEVCCRFFDQAGQPVYTGLQDRTIGISLEQLRRVPKTMAVATGKHKAKAILAALKAGFINYLVTDKETMLAVLALDEDIDLNNVLL | not soluble |
| MKEHVKDKKTAIMGAALKLFTERGFHGTSTAQISKNAGVATGTLFNYFPTKEDLINSLYFEVKGNLGHSMGVGLEAETTFQDKLKRIWSNLVNWGVNNQEEFLFVGQFCSSPYITKFTRDEVMKEYVFLHNFVDEGIKTGEVRDFPAELVIAMFYQGSREVVNLILDSDSSLDKNKIIADGFQILWRGLAKV | not soluble |
| MKEKISEKEYKALIRKTGKEHFDGEKEEYGDGTVGVWTYELRKYKLKPPVKVKYVTQEQFQEYKDSNNQRLIKIENKVDKLVEIVQIHGEQIKAQGETLQLILQTLQKMSDRLDKMEKRIDKLESK | soluble |
| MKEVIFTENAPKPIGPYSQAIKAGNFLFIAGQIPIDPKTGEIVKGDIKDQTRQVLENIKAILEAAGYSLNDVIKVTVYLKDMNDFAKMNEVYAEYFGESKPARVAVEVSRLPKDVLIEIEAIAYKE | soluble |
| MKEYLKEKAHQLPLTPGVYLMKDATDTIIYVGKAKKLKNRVSSYFINSNQHSRKTMRLVKQIIDFDVLHTDTELDALLLECQLIQQYRPRYNRQMNAYEQYSYVSVAVNERQLEIKLLNIPTKENCFGPYSIRRKLNRLKIILDSIYDLVPTNYWHQTFQKESAIPTELFQQELFDFFHNQGREPIKRIAQQMQEAAEKQAFEKAAKLKEDWLFLTRFANQNQRISQANQRDWQLMWLPCQKKIKYYLIYQGLVVATRVVTKQTFQKYSPLELAKKIMPKKPPKTIEHYSKQQVDFLNILYGYISRHPECHLENLTIEKA | not soluble |
| MKFELDTTDGRARRGRLVFDRGVVETPCFMPVGTYGTVKGMTPEEVEATGAQIILGNTFHLWLRPGQEIMKLHGDLHDFMQWKGPILTDSGGFQVFSLGDIRKITEQGVHFRNPINGDPIFLDPEKSMEIQYDLGSDIVMIFDECTPYPADWDYAKRSMEMSLRWAKRSRERFDSLGNKNALFGIIQGSVYEDLRDISVKGLVDIGFDGYAVGGLAVGEPKADMHRILEHVCPQIPADKPRYLMGVGKPEDLVEGVRRGIDMFDCVMPTRNARNGHLFVTDGVVKIRNAKYKSDTGPLDPECDCYTCRNYSRAYLHHLDRCNEILGARLNTIHNLRYYQRLMAGLRKAIEEGKLESFVTDFYQRQGREVPPLNVD | soluble |
| MKFFILSTTLLLIGVQCGYPVAQNSYPTPPPPSDSYVVPKQSYPTAPGAYATKHSFPQNSAPVTAPPLPPPPAPSGYSSDDASVTSNVAASPPAPPTDAQIVGSSSSSTNYGGSSPTYGGSLSSGGIVGGNSLNYGTYNSASAGTPAATGAGASSGYRRRAKAKARARARARTAPNRRLHQRRHLQPIRRFRFQKKAKQ | soluble |
| MKFFVFALILALMLSMTGADSHAKRHHGYKRKFHEKHHSHRGYRSNYLYDNLEHHHHHH | not soluble |
| MKFIHLTDIHLMPPGQSVSGSDPIEKLSKVFEDIATWHSDAEFCVVSGDLADLGDRESYEWLRQRLAHFPVPVFLMLGNHDVRETFISVFPDHPRDANGFIQHAHTAGGARFLFLDTLTGGPDIHDGELCNDRLAWFAAELERAGDMPVYVFLHHPPFDIAIPYVDEIKLRQPDAFHAALQAGRNIRHIFYGHVHRTTYVNWRGYPFTSLPSTNHQVPLIPEREGQEHSAEPLAYGVATIEGDQFTLHVDHYLGK | not soluble |
| MKFKDLRDFVQQLEQRGELKRIQMPISPVLEMTEICDRTLRAKGPALLFENPVGFDIPVLGNLFGTPERVAMGMGAEAVTELREIGKLLAFLKEPEPPKGLKDAWSKLPIFRKVIAMAPKVVKDAPCQEIVIEGDDVDLGMLPVQTCWPGDVAPLITWGLTVTKGPNKERQNLGIYRQQVIGRNKIIMRWLSHRGGALDFRDWCVKHPGEPYPVAVALGADPATILGAVTPVPDSLSEYAFAGLLRGSRTELIKCRGSNLQVPASAEIVLEGVIHPGEMANEGPYGDHTGYYNEVDSFPVLTVERITHRIKPIYHSTYTGRPPDEPAILGVALNEVFVPILQKQFPEIVDFYLPPEGCSYRMAVVTIKKQYPGHAKRVMLGVWSFLRQFMYTKFVIVTDDDINARDWNDVIWAITTRMDPKRDTVMIDNTPIDYLDFASPVSGLGSKMGLDATNKWPGETTREWGRAIVKDEATTRRVDEIWTQLGIDLEHHHHHH | not soluble |
| MKFKQIILAGAVLATSTFTSLTNAQAETGFRDVPSDHWSYNAIMGLKEKNIVAGYGNGMFGFGDNITRGQVARLIYAYLKPADEHNAPNPFTDVKGHMFEKEILSLSKAGIMNGFGDGKFGPDNVLTREQLAVVLTKAFNFKATSTTTFKDVDKNYWATNAISALQENKIAAGTGDNLFEPKNIVTREQYAQFLYNAMNTVEVKPELTPFGIPSSMITNDFYYNSNNWKNASPVLKKSVSNEAQNLITKINKKYNEDYKYESASVSSMGLPESVQLRTSNPNLGRVYDLGQGQFFVQGENEHDFYIMFIIDNATVELAKSWITLINSDLNLDKEINDVIAMPSQKARGRDYHTYLDKGKYQIELGTSPQTKGYDSLFIGIKRK | not soluble |
| MKFLHTADLHLGKIVSGVSMLAEQEYILAQITKIAEEEQVDALILAGDLYDRAVPPADAVKVLNDILVKWNVELGIPIFAISGNHDSAERLAFGSQWYESSKLYMKGKCTSQFEAISFMDAEVWLVPYHEPAIIREAFADNSIRSFEDAMQAVTKQIRSKWDTSKAQILVGHAFVSGGIPSDSERQLAIGNVDRVSTDCFDGFTYTALGHLHHPHAIRHPSIFYSGSPLKYSFSEANDHKSVRIVELEGKELVSVTERFLTPKHDMRIISGTLAELTENLVENPDDFFQVNLMDEGALIDPMGKLRQFYPNILHLERKKQTLKETQDNFEEIMKKDDLELFGQFFEHVNGTELTETQKQKLADVFEQARKEDAE | not soluble |
